Data as given in the nanobody polyreactivity screen of Harvey et al. (2022).

Experiment: yeast display, Sf9 membrane polyspecificity reagent, FACS + sequencing; frameworks hold sequencing errors
How it was run: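 A synthetic nanobody library was expressed on Saccharomyces cerevisiae BJ5465 by galactose induction for 36–48 hours. The library was stained for 1 hour at 4 °C with 10% biotinylated, detergent-solubilized Sf9 membrane reagent and enriched with streptavidin microbeads before FACS. Low and high (top ~1%) gates were set on anti-HA fluorescence for expression and streptavidin fluorescence for reagent binding, and each polyreactivity label reflects the gate of origin.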

Sequence	polyreactivity (PSR sort gate)
QVQLVESGGGLVQAGGSLRLSCAASGRIFGKNAMGWYIQAPRKERDLVAAITSTGGTTYYADSVMGRFTISRDNAKNTVYLQMNSLKPEDSAVYDCAKDGQTNNETQGLKYDYWGQGTQLTVSS	low polyreactivity
QVQLVESGGGLVQAGGSLRLICAASGSTFVRNAMGWYRQSPGKEREFVAAIRRSGGSTYYADSVKGRFTISRDNPKNTVYLQINSLKPEDTAVYDCAARNYYTYDYWGQGTQVTVSS	high polyreactivity
QVQLVESGGGLVQAGGSLRLSCAASGRTFSRNAMGWYRQAPGNERELLAASSWSGGRTYYADSVKGRFTISRDNAKNTFYLQMNSLKPEDTAVYYCAAGGGTGGSRYDSWGQGTQVTVSS	high polyreactivity
QDQHVESGGCLVQEGGSLRLSCAASGRTFSSNVMGWYRQAPGKVRELVASITWSGGTTYYADSVKGRFTISRDNAKNTVYLQMNSLKPEDTAVYYCNAADERSQGWVGYDHWGQCTQVTVSS	low polyreactivity
QVQLVESGGGLVQAGGSLRLSCAASGSIFDLYAMGWYRQAPGKERELVAAISSGATTNYADSVKGRFTISRDNAKNTVYLQMNSLKPEDTAVYYCAKYYRISSLYVIVSAYVYWGQGTQVTVSS	low polyreactivity
PVQLVESGGGLVEAGGSLLLSCAASGSTFREYTMGWYRQAPGKERELVAAITNSGGSTYYADSVKGRFTISRDIAKYTVYLQMNSLKPDDTSVYYFAAEVGIVDYDYWGQGTKVTVSS	low polyreactivity
QVQLVESGGGLVQAGGSLRLSCAASGIIFTGYTMGWYRQAPGKERELVAAITWRGGCTYYADSVKGRFTISRDNAKNTVYLQMNSLKPEDTAVYYCAAEGWYSWDDDYWGQGTQVTVSS	low polyreactivity
QVQLVESGGGLVQAGGSLRLSCAASGRIFSWNTMGWYRQAPGKERELVAAITQSGSTYYADSVKGRFTISRDNAKNTVYLQMNSLKPEDTAVYYCAAVVGRRLYPRYDYWGQGTQVTVSS	high polyreactivity
HVQLVESAGGLFQEGGSLRVSCAASGGTLNTYAMGRYRQAPGKDREFVSAITTSGASTYYADSVKGRFTISRDNAKNTVYLQMNSLKPEDSAVYYCYCDYWGQGTQVTVSS	low polyreactivity
QVQLVESGGGLVQAGGSLRLSCAASGRTLYKYAMGWYRQAPGKERELVAAISRNGGSTYYADSVKGRFTISRDNAKNTVYLQMNSLKPEDTAVYYCNALSRYRIWSYGYWGQGTQVTVSS	high polyreactivity
QVQLVESGGGLVQAGGSLRLSCAASGFTFTRNAMGWYRQAPGKERELVAAINFRSDRTFYADSVKGRFTISRDNAKNTVYLQMNSLKPEDTAVYYCAAQVGRGYEVYPVYKYGYWGQGTQVTVSS	high polyreactivity
QVQLVESGGGLFQAGGSLRLSCAASGGIFYGNVMGWYRQAPGKERELVADITSVGSTYYADSVKGRFTISRDNAKNTVYLQMNSLIPEDTAVYYCAAEPDHVADSHSGYDYWGQGTQVTVSS	low polyreactivity
QVQLVESGGGLVQAGGSLRLSCAASGSTFYYMGWSRQAPGKERELVAAITQSGGSTYYADSVKGRFTISRDNAKNTVYLQMNSLKPEDTAVYYCAARYASPRYKSKMDYWGQGTQVTVSS	high polyreactivity
QVQLQEIVGGLVQAGGSLRLSCAASGNNFDADIMGLYRQAPGKERELVASVTDGGSTNYADSVKGRFTISRDNAKNSVYLQMNILKPEDTAVYYCAAIVYPDILTYFDYDYDYFYWGQGTQVTVGS	low polyreactivity
QVQLVESGGGLVQAGGSLRLSCAASGSMFGYYAMGWYRQATGKERELVASIRRGSSTNYADSVKGRFTISRDNAKNTVYLQMNSLKPEDTAVYYCNAVLLSYDARGYSNLYDYWGQGPQVTVSS	low polyreactivity
QVQLVESGGGLVQAGGSHRLSCAASGRIFSPYAMGWYRRAPGKERELVAAISYDDGITYYADSVKGRFTISRDNAKNTVYLQMNSLKPEDTAVYYCAADCVTRPAGDYWGQGTQVTVSS	low polyreactivity
QVQLVESGGGLVQAGGSLRLSCAASGSIFRTNAMGWYRQAPGKEREFVASISSDSGNTYYADSVKGRFTISRDNAKYTVYLQMNSLKPEDTAVYYCARRKVRYWSYRAANYYWGQGTQVTVSS	low polyreactivity
QVQLVESGGGLVQAGGSLRLSCAASGYTFTIYAMGWYRQAPGKERELVAAITGGGGRTYYADSVKGRFTISRDNAKNTVYLQMNSLKPEDTAVYYCAASGPIVGMNYWGQGTQVTVSS	high polyreactivity
QVQLVESGVGLVQAGGSLSLSCAASGIIFYWYAMGWYRQAPGKEREMVATITSTGGSTNYADSVKGRFTISRDNAKNSVYVQMNSLKPEYTAVYYCSTSGPQYYSRNFDYWGQGTQVTVSS	low polyreactivity
QVWLQESGGGLVQACGSLRLRCAASGTISRDIFMGWYRQAPGKEREFVATIAQGGITNYADSVKGRFTISRDNAKNTVYLQMNSVKPGDTAVYYCAARDGNCYWFYYLGQGTQVTVSS	high polyreactivity
QVQLVESGGGLVQAGGSLRLSCAASGFTFTYYAMGWYRQAPGKERELVASISRRGGDTYYADSVKGRFTISRDNAKNTVYLQMNSLKPEDTAVYYCATRRRQALDGGYYYWGQGTQVTVSS	high polyreactivity
QVQLVESGGGLVQAGGSLRLSCAASGRTFGFYAMGWYRQAPGKERELVAAITSSGGRTYYADSVKGRFTISRDNAKNTVYLQMNSLKPEDTAVYYCATSGRGKYIRYGYWGQGTQVTVSS	high polyreactivity

Sequence	polyreactivity (PSR sort gate)
QVQLVESGGGLVQAGGSLRLSCAASGSIFVKNAMGWYRQAPGKERELVAVITIRTATTYYADSVKGRFTISRDNAKNTVYLQMNSLKPEVTAVYYCAAAKRQRGYLQREGNYWGQGTQVTVSS	low polyreactivity
QVQLVESGGGLVQAGGSLRISCAASGSTFFLYAMGWYRQAPGKERELVAAISTTGGSTNYADSVKGRFTISRDNAKYTFELQINSLKPEDTAVYYCAAGPSAQSIYDHWGQGTQVTVSS	low polyreactivity
QVQLVESGGGLVQAGGSLRLSCAASGRTFVKNTMGWYRQATGKERELVAAISSSGGSTYYADSVKGRFTISRHNAKNTVYLQMNSLNPEDTAVYFCAVSYPYKHAGGWYAYNYWGQGTQVTVSS	high polyreactivity
QVQLVESGGGLVQAGGSLRLSCAASGIIFDEYAMGWYRQAPGKERELVAVIDWSGGSTYYADSVKGRFTISRDNAKKTVYLQMNSLKPEVTAVYYCAAEDDSSTPEFDYWGQGTQVTVSS	low polyreactivity
QDQLVESGGGLVQAGGSLRLSCAASGLIFRHYAMGWSRQAPGKERELVAAITWSGGSTYYADSVKGRFTISRDNAKNTVYLQMNSLKAEDTAVYYCAAEGTGYSVGWQYGYWGQGTQVTVSS	low polyreactivity
QVQLVESGGGLVQAGGSLRLSCAASGSIFEYYTMGWYRQAPGKERELVAGISWSGGSTYYADSVKGRFTISRDNAKNTVYLQMNSLKPEDTAVYYCAAGRTGWYWDSGSTYRYGYGYWGQGTQVTVSS	high polyreactivity
QVQLEESGGGLVQAGGSLRLSCGASGFTFRGYAMGWYIQAPGKERELVAAISKRGGSTYYADSVKGRFTISRDNAKNTVYLQMNSLKPEDTAVYYGAAEDTVYWGGVYYWTVYYWGQGTQVNVSS	high polyreactivity
QVQLVESGGGLVQAGGSLRLSCAASGFTFTVYAMGWYRQAPGKERELVAAIRWSGGSTSYADSVKGRFTISRDNAKNTVYLQMNSLKPEDTAVYYCNARISDAHYQSNYFLVLYDYWGKGTQVTVSS	low polyreactivity
QVQLVESGGGLVQAGGSLRLSCAASGSTLSQNAMGWYRQAPGKEREFVADISGSGDSTYYADSVKGRFTISRDNAKNTVYLQMNSLKPEDTAVYYCAARSLVQDHAYGYNYWGQGTQVTVSS	low polyreactivity
QVQLVESGGGVVQAGCSLRISCAASGIFRKYAMGWYRQAPGKERELVAAITWGGGRTYYADSVKGRFTISRDNAKNTVYFQMNSLKPEDTAVYYCAAAKTGRGRGTTGYGYCGQGTQVTVSS	high polyreactivity
QVQLVESGGGLVQAGGSLRLSCAASGSTFWFNAMGWYRQAPGKEREFVAAITWRGGSTYYSDSVKGRFTISRDNAKNTVYLQMNSLKPEDTAVYYCAAVTAYYYRRTYEYWGQGTQVTVSS	high polyreactivity
QVQLVESGGGLVQAGGSLRLSCAASGGILVFYAMGWYRQAPGKERELVAAINVSGGSTYYADSVKGRFTISRDNAKNTVYLQMNSLKPEDTAVYYCAALGPYLDYGVQYGYWGQGTQVTVSS	low polyreactivity
QVQLVESGGGLVQAGGSLRLSCAASGRTFYNYAMGWYRQAPGKERELVAAIDWGSDSTYYADSVKGRFTISRDNAKNTVYLQMNSLKPEDTAVYYCAAYLVSVNSRTYDYWGQGTQVTVSS	low polyreactivity
QVQLVESGGGLVQAGGSLRLSCAASGSISVRNVMGWYRQAPGKERELVATIRRTGGSTSYADSVKGRFTISRDNAKNTVYLQMNSLKPEDTAVYYCAAVGYTTYRRYDYWGQGTQVTVSS	low polyreactivity
QVQLVESGGGLVQAGGSLRLSCAASGSIFPLNDMGWYRQAPGKERELVAAITIGGSTYYADSVKGRFTISRDNAKNTVYLQMNSLKPEDTAVYYCAKVGELSYRYDYWGQGTQVTVSS	high polyreactivity
QVQLVESGGGLVQAGGSLRLSCAASGRIFQNYAAMGRYRPPPGKERELVASIRATGGSTYYADSVKGRFTISRDNAKNTVYLQMNSLKPEDTAVYYCAARFAAKSLPAYDYWGQGTQVTVSS	low polyreactivity
QVQLVESGGGLVQAGGSLRLSCAASGSIFYRYAMGGYRQAPGKERELVAAISSRGGSTYYADSVKGRFTISRDTAKNTVYLQMNSLKPEDTAVYYCNKDNHDLELPVEFEYWGQGTQVTVSS	high polyreactivity
QVQLVESGGGLVQAGGSLRLSCAASGRIFGPYTMGWYRQAPGKERELVAAISSTGGSTYYADSVKGRFTISRDNAKNTVYLQRNSLKPEDTAVYYCEYDYWGQGTQVTVSS	low polyreactivity
QVQLVESGGRLVQAGGSLRLSCAASGRIFSIYGMGWYRPAPGKERELVAVISGSVGITYYADSVKGRFTISRDNAKNTVYLQMNSLKPEDTAVYYCNAKVRRRKYDYWGQGTQVTVSS	high polyreactivity
QVQLVESGGGLVQAGGSLRLSCAASGSIFFRYAMGWYRQAPGKERELVARISWGGGRTYYADSVKGRFTISRDNAKNTVYLQMNSLKPEDTAVYYCNRAYWVNPGGFDYWGQGTQVTVSS	high polyreactivity
QVQLVESGGGLVQAGGSLRLSCAASGFIIGVYAMGWYRQAPGKEREFVAAISLTGGSTSYADSVKGLFTISRDNAKNTVYLQMNSLKREDTAVYYCAADAWFWVRWGENYWGQGTQVTVSS	low polyreactivity
